Biological target: MPER-TM2 (gp41 residues 630-711, containing the complete TM region) (HIV-1)
Assay: not stated; MPER-TM2 solubilized in a buffer containing β-D-octyl glucoside (β-OG); oligomeric state (Figure S5B)

With “MPER-TM2 (gp41 residues 630-711, containing the complete TM region) (domain or fragment)” the stoichiometry N was 3.
